This passage reports binding results from paper PMC5504672.

Series [1] has as its target T1, IolQ-His6 (DegA) (Bacillus subtilis 168) (UniProt P37947).
T1 sequence: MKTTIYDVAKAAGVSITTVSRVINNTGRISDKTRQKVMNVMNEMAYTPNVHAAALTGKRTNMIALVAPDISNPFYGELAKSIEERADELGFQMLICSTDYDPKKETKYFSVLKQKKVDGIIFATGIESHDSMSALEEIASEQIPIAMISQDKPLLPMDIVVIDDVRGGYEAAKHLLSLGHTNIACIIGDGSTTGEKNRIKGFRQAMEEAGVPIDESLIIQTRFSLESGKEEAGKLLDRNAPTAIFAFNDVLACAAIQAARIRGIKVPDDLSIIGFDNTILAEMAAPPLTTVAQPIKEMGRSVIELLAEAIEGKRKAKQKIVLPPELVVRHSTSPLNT
Briefly: DNase I footprinting. Conditions: 10 mM Tris-HCl pH 8.0, 1 mM DTT, 10 mM KCl, 5 mM MgCl2, 10% glycerol, 5 ug/ml poly d(I-C), 50 ug/ml BSA, 37 C, 30 min; DNA 0.155 pmol in 0.02 ml (EMSA) or ….

Series [2] deals with T1, IolQ-His6 (DegA) (Bacillus subtilis 168). Briefly: EMSA. Particulars: 10 mM Tris-HCl pH 8.0, 1 mM DTT, 10 mM KCl, 5 mM MgCl2, 10% glycerol, 5 ug/ml poly d(I-C), 50 ug/ml BSA, 37 C, 30 min; DNA 0.155 pmol in 0.02 ml (EMSA) or ….

Take “GAGCTTGTAGTCAGACATTCTACATCACCGCTCAACACATGAGCCCGCTAATGAGCGGGTTTTTTCATTATGACAGTTGAAGCCAAAAAAACATATTGCGTGTAAACCAAAGGCGGTGTAAAATATAACCATCTTTTGAGAAAGCGCTTGCGCAAAATGGCAGAGCGGATAGAACCGCTGTTTTTTTAGCTGTTAAGAGAAAACGCTTTCTCAAAGCGAGCCCGAAATGAGATAAAGGAGAGGATGGGACGTGGAACATCAAGTAAGATGTGCAGTATTGGGATTAGGAAGGCTCGGTTA (double strand) [iolX promoter 300 bp footprint probe, high affinity region]”: in series [1], the binding entry is “binds”.

Take “ATGAGCGGGTTTTTTCATTATGACAGTTGAAGCCAAAAAAACATATTGCGTGTAAACCAAAGGCGGTGTAAAATATAACCATCTTTTGAGAAAGCGCTTGCGCAAAATGGCAGAGCGGATAGAACCGCTGTTTTTTTAGCTGTTAAGAGAAAACGCTTTCTCAAAGCGAGCCCGAAATGAGATAAAGGAGAGGATGGGAC (double strand) [iolX promoter 200 bp]”: in series [2], the binding entry was “binds”.
